# Measured values published in patent US20250177505A1, “CANCER VACCINE COMPRISING EPITOPE OF C-MET AND EPITOPE OF HIF1ALPHA, AND USE THEREOF” (KOREA UNIVERSITY RESEARCH AND BUSINESS FOUNDATION, priority 2022, published 2025).
# Entries after “also recorded” stand apart in the source; their conditions may differ.
# Tests used:
# [1] = system: bone marrow monocytes (BMMs); assay: Osteoclastogenesis analysis in bone marrow monocytes; format: cell-based, C3(1)-Tag mice; conditions: BMM with M-CSF 30 ng/mL, RANKL 100 ng/mL, IFN-γ 50, 100 ng/mL; vs positive control
# Experimental: Primary mouse bone marrow monocytes (BMMs) were isolated from the hind limb bones (two femurs and two tibiae) of 4 to 8 week-old C3(1)-Tag mice. The mouse BMMs were flushed into a 15 ml tube via 8 ml of a serum-free 2 mM EDTA α-MEM medium. A Lymphocyte Separation Medium (LSM; MP Biomedicals; Catalog No. 50494) was dispensed into a new tube, 8 ml of the flushed BMMs were gently added thereon and centrifuged at 1600 rpm for 20 minutes at room temperature. The isolated BMMs were inoculated at 3×10^5 cells/well in a 48-well plate with 0.5 mL of a medium per well and incubated in α-MEM containing 10% FBS and 1% antibiotics.
# BMMs in a negative control group were treated with M-CSF (30 ng/mL), BMMs in a positive control group were treated with M-CSF and RANKL (100 ng/mL), and BMMs in an experimental group were stimulated by treatment with M-CSF, RANKL, and IFN-γ(50, 100 ng/mL). On days 1, 3, 5, and 7 of culture, the medium was replaced, and each experimental group was treated with M-CSF, RANKL, and IFN-γ. After 9 days of culture, staining was performed using a TRAP staining kit (KT-008, KAMIYA biomedical company, Seattle, WA, USA) after fixing the cells with 10% formalin. For each well, TRAP-positive (TRAP^+) multinucleated cells (TRAP^+ MNC) were counted. All the experiments were independently repeated three times.
# M6-bone cells = assay: Western blot of IFN-γ-treated cells; format: cell-based, mouse; conditions: 100 ng/ml IFN-γ, 18 hours
# Experimental: M6 and M6-bone cells were stimulated with 100 ng/ml recombinant mouse IFN-γ and cultured in a medium containing 1% FBS for 18 hours. The cells were lysed in a buffered mixture of a PRO-PREPTM protein extraction solution (iNtRON Biotechnology, 17081) and a phosphatase inhibitor cocktail (Gen DEPOT, p3200-001). Protein concentration was measured using the Bradford assay (Bio-rad, 500-0006, Hercules, CA, USA). 30 μg of the protein was separated by SDS-polyacrylamide gel electrophoresis and transferred to a PVDF membrane (10600023), and then the membrane was blocked with Tris-buffered saline containing 0.05% Tween 20 and 5% non-fat milk powder for 1 hour. The PVDF membrane was incubated overnight at 4° C. with primary antibodies. HIF1α (NB100-105, Novusbio), c-MET, Akt (Cat #9272), and p-Akt (Cat #9271) antibodies were purchased from Cell Signaling Technology (Beverly, MA, USA), and β-actin (Cat #A5316) was purchased from Sigma (Saint Louis, MO, USA). Subsequently, a horseradish peroxidase-conjugated secondary antibody was cultured at room temperature for 1 hour. Immunoreactive bands were detected with a chemiluminescent reagent (Cat #RPN2106).
molecule,measurement,setting,value
"IFN-γ: recombinant mouse IFN-γ, key cytokine of T-helper type 1 immunity (protein, UniProt P01580 23-155, looked up) Interferon gamma: HGTVIESLESLNNYFNSSGIDVEEKSLFLDIWRNWQKDGDMKILQSQIISFYLRLFEVLKDNQAISNNISVIESHLITTFFSNSKAKKDAFMSIAKFEVNNPQVQRQAFNELIRVVHQLLPESSLRKRKRSRC",osteoclastogenesis in vitro,[1],completely inhibited; also recorded: inhibits
same,Expression of c-MET,M6-bone cells,decreased
same,Expression of p-Akt,M6-bone cells,decreased
